{
  "source": "patent US20150307603A1",
  "about": "(MODIQUEST B V, published 2015)",
  "binders": {"B1": {"name": "RhmAb2.102 (antibody, human IgG1, lambda)", "heavy": "not shown", "light": "QSVLTQPPSMSAAPGQKVTISCSGSSSNIGNNYVSWYQQVPGTAPKLLIYDDNKRPSGIPGRFSGSKSATSATLGITGLQAGDEADYYCGSWDDNLSVVLFGGGTKLTVLGQPKAAPSVTLFPPSSEELQANKATLVCLISDFYPGAVTVAWKADSSPVKAGVETTTPSKQSNNKYAASSYLSLTPEQWKSHRSYSCQVTHEGSTVEKTVAPTECS", "notes": "Human IgG1 lambda; also called Rhm2.102"}},
  "key": {"CFC-1 [1]": {"target": "T1, CFC-1", "T1 construct": "Positive control for anti-citrulline reactivity; also called cfc1 XG; Cfc1-peptide", "test": "ELISA, Ab 0.00064 ug/well", "description": "(§1) Biotin and citrulline-containing peptides derived from fibrinogen and vimentin were immobilized on NEUTRAVIDIN®-coated 96-well ELISA plates (0.3 μg/well). CFC-1 and CFC-0 were coated at the same concentration and served as positive and negative controls, respectively, for specific anti-citrulline reactivity and as coating controls. Non-coated wells were used to test for aspecific binding of the antibodies. […] Detection of bound anti-citrulline antibodies was performed by incubating the wells with rabbit anti-human HRP (1:2000) for 1 hour at RT followed by incubation with TMB substrate. The resulting OD (y-axis) is a measure for antibody binding.\n(§2) Biotin-labeled and citrulline-containing fibrinogen and vimentin peptides (Table 5) were also tested for reactivity with the therapeutic antibodies. Peptides were coated on 96-well NEUTRAVIDIN®-ELISA plates."}, "msFibβ XG [2]": {"target": "T2, msFibβ XG (mouse, also: biotin-labelled)", "T2 construct": "also called mouse fibrinogen β peptide", "T2 peptide": "EPTDSLDA[Cit]GHRPVDRR", "test": "ELISA, Ab 0.00064 ug/well", "description": "as §1, §2"}, "CFC-1 [3]": {"target": "T1, CFC-1", "test": "ELISA, Ab 0.0032 ug/well", "description": "as §1, with “histone 2A” for “fibrinogen and vimentin”"}, "[4]": {"target": "T3, peptide no. 12 (human histone 2A) (human, also: biotin-labelled)", "T3 construct": "also called peptide 12", "T3 peptide": "NKLLG[Cit]VTIAQG", "test": "ELISA, Ab 0.0032 ug/well", "description": "as §1, with “histone 2A” for “fibrinogen and vimentin”"}, "[5]": {"target": "T4, peptide no. 11 (human histone 2A) (human, also: biotin-labelled)", "T4 construct": "also called peptide 11", "T4 peptide": "LQLAI[Cit]NDEELN", "test": "ELISA, Ab 0.0032 ug/well", "description": "as §1, with “histone 2A” for “fibrinogen and vimentin”"}, "[6]": {"target": "T5, peptide no. 5 (human histone 2A) (human, also: biotin-labelled)", "T5 construct": "also called peptide 5", "T5 peptide": "VGRVH[Cit]LLRKGN", "test": "ELISA, Ab 0.0032 ug/well", "description": "as §1, with “histone 2A” for “fibrinogen and vimentin”"}, "[7]": {"target": "T6, peptide no. 4 (human histone 2A) (human, also: biotin-labelled)", "T6 construct": "also called peptide 4", "T6 peptide": "QFPVG[Cit]VHRLLR", "test": "ELISA, Ab 0.0032 ug/well", "description": "as §1, with “histone 2A” for “fibrinogen and vimentin”"}, "[8]": {"target": "T7, peptide no. 8 (human histone 2A) (human, also: biotin-labelled)", "T7 construct": "also called peptide 8", "T7 peptide": "AGNAA[Cit]DNKKTR", "test": "ELISA, Ab 0.0032 ug/well", "description": "as §1, with “histone 2A” for “fibrinogen and vimentin”"}, "[9]": {"target": "T8, peptide no. 10 (human histone 2A) (human, also: biotin-labelled)", "T8 construct": "also called peptide 10", "T8 peptide": "TRIIP[Cit]HLQLAI", "test": "ELISA, Ab 0.0032 ug/well", "description": "as §1, with “histone 2A” for “fibrinogen and vimentin”"}, "[10]": {"target": "T9, peptide no. 1 (human histone 2A) (human, also: biotin-labelled)", "T9 construct": "also called peptide 1; AAASGXGKQGGK", "T9 peptide": "AAASG[Cit]GKQGGK", "test": "ELISA, Ab 0.0032 ug/well", "description": "as §1, with “histone 2A” for “fibrinogen and vimentin”"}, "[11]": {"target": "T10, peptide no. 7 (human histone 2A) (human, also: biotin-labelled)", "T10 construct": "also called peptide 7", "T10 peptide": "GNYSE[Cit]VGAGAP", "test": "ELISA, Ab 0.0032 ug/well", "description": "as §1, with “histone 2A” for “fibrinogen and vimentin”"}, "CFC-1 [12]": {"target": "T1, CFC-1", "test": "ELISA, Ab 2 ug/well", "description": "as §1, §2"}, "msFibα XH": {"target": "T11, msFibα XH (mouse, X at position 15 = citrulline; biotin-labelled)", "T11 peptide": "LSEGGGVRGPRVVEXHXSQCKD", "test": "ELISA, Ab 2 ug/well", "description": "as §1, §2"}, "msFibα XG": {"target": "T12, msFibα XG (mouse, X at position 8 = citrulline; biotin-labelled)", "T12 peptide": "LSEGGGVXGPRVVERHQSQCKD", "test": "ELISA, Ab 2 ug/well", "description": "as §1, §2"}, "msFibβ XG [13]": {"target": "T2, msFibβ XG", "test": "ELISA, Ab 2 ug/well", "description": "as §1, §2"}, "huFibα XH": {"target": "T13, huFibα XH (human, X at position 15 = citrulline; biotin-labelled)", "T13 peptide": "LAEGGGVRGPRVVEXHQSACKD", "test": "ELISA, Ab 2 ug/well", "description": "as §1, §2"}, "huFibα XG": {"target": "T14, huFibα XG (human, X at position 8 = citrulline; biotin-labelled)", "T14 peptide": "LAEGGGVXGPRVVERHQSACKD", "test": "ELISA, Ab 2 ug/well", "description": "as §1, §2"}, "msVim XS/XL": {"target": "T15, msVim XS/XL (mouse, also: biotin-labelled)", "T15 construct": "also called mouse vimentin peptide", "T15 peptide": "YVT[Cit]SSAV[Cit]L[Cit]SSVP", "test": "ELISA, Ab 2 ug/well", "description": "as §1, §2"}, "CFC-1 [14]": {"target": "T1, CFC-1", "test": "ELISA, Ab 0.000128 ug/well", "description": "as §1, with “histone 2A” for “fibrinogen and vimentin”"}, "[15]": {"target": "T4, peptide no. 11 (human histone 2A)", "test": "ELISA, Ab 0.000128 ug/well", "description": "as §1, with “histone 2A” for “fibrinogen and vimentin”"}, "[16]": {"target": "T16, peptide no. 2 (human histone 2A) (human, also: biotin-labelled)", "T16 construct": "also called peptide 2", "T16 peptide": "AKAKS[Cit]SSRAGL", "test": "ELISA, Ab 0.000128 ug/well", "description": "as §1, with “histone 2A” for “fibrinogen and vimentin”"}, "[17]": {"target": "T17, peptide no. 9 (human histone 2A) (human, also: biotin-labelled)", "T17 construct": "also called peptide 9", "T17 peptide": "DNKKT[Cit]IIPRHL", "test": "ELISA, Ab 0.000128 ug/well", "description": "as §1, with “histone 2A” for “fibrinogen and vimentin”"}, "[18]": {"target": "T5, peptide no. 5 (human histone 2A)", "test": "ELISA, Ab 0.000128 ug/well", "description": "as §1, with “histone 2A” for “fibrinogen and vimentin”"}, "[19]": {"target": "T18, peptide no. 3 (human histone 2A) (human, also: biotin-labelled)", "T18 construct": "also called peptide 3", "T18 peptide": "KSRSS[Cit]AGLQFP", "test": "ELISA, Ab 0.000128 ug/well", "description": "as §1, with “histone 2A” for “fibrinogen and vimentin”"}, "[20]": {"target": "T19, peptide no. 6 (human histone 2A) (human, also: biotin-labelled)", "T19 construct": "also called peptide 6", "T19 peptide": "VHRLL[Cit]KGNYSE", "test": "ELISA, Ab 0.000128 ug/well", "description": "as §1, with “histone 2A” for “fibrinogen and vimentin”"}, "[21]": {"target": "T7, peptide no. 8 (human histone 2A)", "test": "ELISA, Ab 0.000128 ug/well", "description": "as §1, with “histone 2A” for “fibrinogen and vimentin”"}, "[22]": {"target": "T8, peptide no. 10 (human histone 2A)", "test": "ELISA, Ab 0.000128 ug/well", "description": "as §1, with “histone 2A” for “fibrinogen and vimentin”"}, "[23]": {"target": "T9, peptide no. 1 (human histone 2A)", "test": "ELISA, Ab 0.000128 ug/well", "description": "as §1, with “histone 2A” for “fibrinogen and vimentin”"}},
  "note": "Non-standard residues stand in square brackets, D forms with d. No end group written: not given here. Cit = NC(=O)NCCC[C@H](N)C(=O)O",
  "data": [
    {"binder": "B1", "values": [
      {"measurement": "OD", "setting": "CFC-1 [1]", "value": 0.345, "unit": "OD450"},
      {"measurement": "OD", "setting": "msFibβ XG [2]", "value": 0.133, "unit": "OD450"},
      {"measurement": "OD", "setting": "CFC-1 [3]", "value": 0.916, "unit": "OD450"},
      {"measurement": "OD", "setting": "[4]", "value": 0.059, "unit": "OD450"},
      {"measurement": "OD", "setting": "[5]", "value": 0.057, "unit": "OD450"},
      {"measurement": "OD", "setting": "[6]", "value": 0.063, "unit": "OD450"},
      {"measurement": "OD", "setting": "[7]", "value": 0.078, "unit": "OD450"},
      {"measurement": "OD", "setting": "[8]", "value": 0.06, "unit": "OD450"},
      {"measurement": "OD", "setting": "[9]", "value": 0.068, "unit": "OD450"},
      {"measurement": "OD", "setting": "[10]", "value": 0.3, "unit": "OD450"},
      {"measurement": "OD", "setting": "[11]", "value": 0.064, "unit": "OD450"},
      {"measurement": "OD", "setting": "CFC-1 [12]", "value": 3.97, "unit": "OD450"},
      {"measurement": "OD", "setting": "msFibα XH", "value": 0.091, "unit": "OD450"},
      {"measurement": "OD", "setting": "msFibα XG", "value": 1.9, "unit": "OD450"},
      {"measurement": "OD", "setting": "msFibβ XG [13]", "value": 3.15, "unit": "OD450"},
      {"measurement": "OD", "setting": "huFibα XH", "value": 0.116, "unit": "OD450"},
      {"measurement": "OD", "setting": "huFibα XG", "value": 1.51, "unit": "OD450"},
      {"measurement": "OD", "setting": "msVim XS/XL", "value": 2.77, "unit": "OD450"},
      {"measurement": "OD", "setting": "CFC-1 [14]", "value": 0.749, "unit": "OD450"},
      {"measurement": "OD", "setting": "[15]", "value": 0.059, "unit": "OD450"},
      {"measurement": "OD", "setting": "[16]", "value": 0.075, "unit": "OD450"},
      {"measurement": "OD", "setting": "[17]", "value": 0.055, "unit": "OD450"},
      {"measurement": "OD", "setting": "[18]", "value": 0.059, "unit": "OD450"},
      {"measurement": "OD", "setting": "[19]", "value": 0.063, "unit": "OD450"},
      {"measurement": "OD", "setting": "[20]", "value": 0.054, "unit": "OD450"},
      {"measurement": "OD", "setting": "[21]", "value": 0.055, "unit": "OD450"},
      {"measurement": "OD", "setting": "[22]", "value": 0.057, "unit": "OD450"},
      {"measurement": "OD", "setting": "[23]", "value": 0.128, "unit": "OD450"}
    ]}
  ]
}
